# Data reported in patent publication US20180155451A1 (published 2018).
# T1: FcγRIIa H (human, UniProt P12318 34-217)
# T1 construct: extracellular domain; Soluble extracellular domain with C-terminal His tag, expressed in FreeStyle293 cells; also called FcgRIIa H; 2aH; not shown: C-terminal His tag
# T1 sequence (looked up): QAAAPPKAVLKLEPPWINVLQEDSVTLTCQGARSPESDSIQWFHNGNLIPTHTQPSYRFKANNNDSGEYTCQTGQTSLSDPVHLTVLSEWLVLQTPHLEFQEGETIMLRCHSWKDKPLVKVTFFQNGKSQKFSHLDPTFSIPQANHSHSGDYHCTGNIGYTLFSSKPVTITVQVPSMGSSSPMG
# T2: FcγRIIb (human, UniProt P31994 43-217)
# T2 construct: extracellular domain; Soluble extracellular domain with C-terminal His tag, expressed in FreeStyle293 cells; also called FcgRIIb; 2b; not shown: C-terminal His tag
# T2 sequence (looked up): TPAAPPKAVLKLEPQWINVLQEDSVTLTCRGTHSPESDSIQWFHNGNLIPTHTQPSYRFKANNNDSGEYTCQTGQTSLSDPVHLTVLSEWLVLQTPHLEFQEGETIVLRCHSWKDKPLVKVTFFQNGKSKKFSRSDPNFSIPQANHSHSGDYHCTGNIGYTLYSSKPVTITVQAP
# B1: GpH7-A5/GpH7-B3 variant G237_20W/GpL16-k0 (antibody, human IgG1, kappa)
# heavy 1: not shown
# heavy 2: not shown
# light: DIVMTQSPLSLPVTPGEPASISCQASESLVHSNRNTYLHWYLQKPGQSPQLLIYKVSNRFSGVPDRFSGSGSGTDFTLKISRVEAEDVGVYYCSQNTHVPPTFGQGTKVEIERTVAAPSVFIFPPSDEQLKSGTASVVCLLNNFYPREAKVQWKVDNALQSGNSQESVTEQDSKDSTYSLSSTLTLSKADYEKHKVYACEVTHQGLSSPVTKSFNRGEC
# notes: Heterodimerized anti-glypican-3 IgG1; alteration in the GpH7-B3 chain only; also called He Ab
# B2: GpH7-A5/GpH7-B3 variant L235_20W/GpL16-k0 (antibody, human IgG1, kappa)
# heavy 1: not shown
# heavy 2: not shown
# light: B1 light
# notes: as for B1
# B3: GpH7-A5/GpH7-B3 variant P238_18N/GpL16-k0 (antibody, human IgG1, kappa)
# heavy 1: not shown
# heavy 2: not shown
# light: B1 light
# notes: as for B1
# B4: GpH7-A5/GpH7-B3 variant G237_04F/GpL16-k0 (antibody, human IgG1, kappa)
# heavy 1: not shown
# heavy 2: not shown
# light: B1 light
# notes: as for B1
# B5: GpH7-A5/GpH7-B3 variant V266_06M/GpL16-k0 (antibody, human IgG1, kappa)
# heavy 1: not shown
# heavy 2: not shown
# light: B1 light
# notes: as for B1
# B6: GpH7-A5/GpH7-B3 variant S239_05P/GpL16-k0 (antibody, human IgG1, kappa)
# heavy 1: not shown
# heavy 2: not shown
# light: B1 light
# notes: as for B1
# B7: GpH7-A5/GpH7-B3 variant G237_14T/GpL16-k0 (antibody, human IgG1, kappa)
# heavy 1: not shown
# heavy 2: not shown
# light: B1 light
# notes: as for B1
# B8: GpH7-A5/GpH7-B3 variant L235_09D/GpL16-k0 (antibody, human IgG1, kappa)
# heavy 1: not shown
# heavy 2: not shown
# light: B1 light
# notes: as for B1
# B9: GpH7-A5/GpH7-B3 variant G237_03V/GpL16-k0 (antibody, human IgG1, kappa)
# heavy 1: not shown
# heavy 2: not shown
# light: B1 light
# notes: as for B1
# B10: GpH7-A5/GpH7-B3 variant S267_03V/GpL16-k0 (antibody, human IgG1, kappa)
# heavy 1: not shown
# heavy 2: not shown
# light: B1 light
# notes: as for B1
# B11: GpH7-A5/GpH7-B3 variant G237_09D/GpL16-k0 (antibody, human IgG1, kappa)
# heavy 1: not shown
# heavy 2: not shown
# light: B1 light
# notes: as for B1
# B12: GpH7-A5/GpH7-B3 variant P238_07I/GpL16-k0 (antibody, human IgG1, kappa)
# heavy 1: not shown
# heavy 2: not shown
# light: B1 light
# notes: as for B1
# B13: GpH7-A5/GpH7-B3 variant S267_14T/GpL16-k0 (antibody, human IgG1, kappa)
# heavy 1: not shown
# heavy 2: not shown
# light: B1 light
# notes: as for B1
# B14: GpH7-A5/GpH7-B3 variant P238_09D/GpL16-k0 (antibody, human IgG1, kappa)
# heavy 1: not shown
# heavy 2: not shown
# light: B1 light
# notes: as for B1
# B15: GpH7-A5/GpH7-B3 variant P238_10E/GpL16-k0 (antibody, human IgG1, kappa)
# heavy 1: not shown
# heavy 2: not shown
# light: B1 light
# notes: as for B1
# B16: GpH7-A5/GpH7-B3 variant S239_18N/GpL16-k0 (antibody, human IgG1, kappa)
# heavy 1: not shown
# heavy 2: not shown
# light: B1 light
# notes: as for B1
# B17: GpH7-A5/GpH7-B3 variant S239_07I/GpL16-k0 (antibody, human IgG1, kappa)
# heavy 1: not shown
# heavy 2: not shown
# light: B1 light
# notes: as for B1
# B18: GpH7-A5/GpH7-B3 variant S267_06M/GpL16-k0 (antibody, human IgG1, kappa)
# heavy 1: not shown
# heavy 2: not shown
# light: B1 light
# notes: as for B1
# B19: GpH7-A5/GpH7-B3 variant S267_01G/GpL16-k0 (antibody, human IgG1, kappa)
# heavy 1: not shown
# heavy 2: not shown
# light: B1 light
# notes: as for B1
# Target: T1, FcγRIIa H
# Test: SPR (Biacore), antibody captured, FcγR as analyte; relative to HeCon Ab
# Experimental: (§1) The heterodimerized antibodies He Abs in which one of the H chains was introduced with an alteration were assayed for their binding activities to each activating FcγR and inhibitory FcγR according to the method described in Example 4. […] The activating FcγRs in FIGS. 26, 27, 28, and 29 are FcγRIa, FcγRIIa (R), FcγRIIa (H), and FcγRIIIa, respectively.
# (§2) Analysis of interaction between objective antibody and the FcγR was carried out using Biacore T100 (GE Healthcare). HBS-EP+ (GE Healthcare) was used as the running buffer, and the measurement temperature was set to 25° C. Chips produced by immobilizing the antigen peptide by the amine coupling method to a Series S Sencor Chip CM5 (GE Healthcare), or alternatively, chips produced by allowing preliminarily biotinylated antigen peptides to interact with and immobilize onto a Series S Sensor Chip SA (certified) (GE Healthcare) were used. Antibodies of interest were captured onto an antigen peptide-immobilized chip, and allowed to interact to each FcγR diluted with running buffer. To regenerate and repeatedly use the chip, the antibodies captured on the chip were washed off by reacting 10 mM glycine-HCl, pH 1.5.
row,He/Con_2aH,Binder
1,31.6 % of GpH7-A5/GpH7-B3/GpL16-k0 (=100),B1
2,118 % of GpH7-A5/GpH7-B3/GpL16-k0 (=100),B2
3,53.5 % of GpH7-A5/GpH7-B3/GpL16-k0 (=100),B3
4,41.4 % of GpH7-A5/GpH7-B3/GpL16-k0 (=100),B4
5,83.9 % of GpH7-A5/GpH7-B3/GpL16-k0 (=100),B5
6,33.3 % of GpH7-A5/GpH7-B3/GpL16-k0 (=100),B6
7,31.8 % of GpH7-A5/GpH7-B3/GpL16-k0 (=100),B7
8,75.8 % of GpH7-A5/GpH7-B3/GpL16-k0 (=100),B8
9,39.4 % of GpH7-A5/GpH7-B3/GpL16-k0 (=100),B9
10,50.8 % of GpH7-A5/GpH7-B3/GpL16-k0 (=100),B10
11,11.1 % of GpH7-A5/GpH7-B3/GpL16-k0 (=100),B11
12,57.6 % of GpH7-A5/GpH7-B3/GpL16-k0 (=100),B12
13,63.3 % of GpH7-A5/GpH7-B3/GpL16-k0 (=100),B13
14,87.5 % of GpH7-A5/GpH7-B3/GpL16-k0 (=100),B14
15,77.1 % of GpH7-A5/GpH7-B3/GpL16-k0 (=100),B15
16,94.2 % of GpH7-A5/GpH7-B3/GpL16-k0 (=100),B16
17,91.5 % of GpH7-A5/GpH7-B3/GpL16-k0 (=100),B17
18,34.3 % of GpH7-A5/GpH7-B3/GpL16-k0 (=100),B18
19,71.3 % of GpH7-A5/GpH7-B3/GpL16-k0 (=100),B19

# Target: T2, FcγRIIb
# Test: as above
# Experimental: as §1, §2
row,He/Con_2b,Binder
1,193 % of GpH7-A5/GpH7-B3/GpL16-k0 (=100),B1
2,147 % of GpH7-A5/GpH7-B3/GpL16-k0 (=100),B2
3,73.2 % of GpH7-A5/GpH7-B3/GpL16-k0 (=100),B3
4,149 % of GpH7-A5/GpH7-B3/GpL16-k0 (=100),B4
5,251 % of GpH7-A5/GpH7-B3/GpL16-k0 (=100),B5
6,102 % of GpH7-A5/GpH7-B3/GpL16-k0 (=100),B6
7,54.8 % of GpH7-A5/GpH7-B3/GpL16-k0 (=100),B7
8,106 % of GpH7-A5/GpH7-B3/GpL16-k0 (=100),B8
9,61.4 % of GpH7-A5/GpH7-B3/GpL16-k0 (=100),B9
10,192 % of GpH7-A5/GpH7-B3/GpL16-k0 (=100),B10
11,223 % of GpH7-A5/GpH7-B3/GpL16-k0 (=100),B11
12,80 % of GpH7-A5/GpH7-B3/GpL16-k0 (=100),B12
13,104 % of GpH7-A5/GpH7-B3/GpL16-k0 (=100),B13
14,221 % of GpH7-A5/GpH7-B3/GpL16-k0 (=100),B14
15,232 % of GpH7-A5/GpH7-B3/GpL16-k0 (=100),B15
16,119 % of GpH7-A5/GpH7-B3/GpL16-k0 (=100),B16
17,107 % of GpH7-A5/GpH7-B3/GpL16-k0 (=100),B17
18,210 % of GpH7-A5/GpH7-B3/GpL16-k0 (=100),B18
19,105 % of GpH7-A5/GpH7-B3/GpL16-k0 (=100),B19
